The target in one test is T1, BiP-Sepharose (Homo sapiens, UniProt P11021).
T1 construct: The human BiP gene except the signal peptide encoding region was obtained from Geneart (Germany); linker […]; made in house; host or cells: HEK 293E cells, transient transfection, PABC674 vector; secreted into the medium
In words: BiP-Sepharose extraction of proteins from patient plasma, serum, synovial fluid and mass-spectrometric identification. In kind it is binding. The following applies: Sample B6: eluate of BiP-Sepharose contacted with RA patient IV synovial fluid. On the procedure: BiP was coated on CNBr-Sepharose (GE-Healthcare, Amersham Biosciences). Immobilization of BiP was performed essentially as described elsewhere in this application for NHS-Sepharose. CNBr-matrix was dissolved at 200 mg/ml in 1 mM HCl and treated the same as the NHS-matrix, except for an additional 5 minutes activation step in 1 mM HCl on a roller device before washing in this buffer. BiP was diluted in immobilization buffer (50 mM NaCl and 40 mM NaHCO3) to a concentration of 820 μg/ml. A total volume of 2 ml BiP solution (1640 μg BiP) was incubated with 360 mg beads. Negative control matrix was exposed to immobilization buffer, only. After overnight immobilization matrix was blocked with Tris and washed.
Six samples were incubated with the BiP-Sepharose, IgIV-Sepharose and the control-Sepharose: Normal pooled plasma, plasma of a patient I or of a patient II, with AL amyloidosis, serum of a patient III with RA (Rheumatoid Factor (RF) titer 682), control serum and synovial fluid of a patient IV with RA (RF titer 23). All samples were diluted 20× in HBS and applied to 200 μl beads in two volumes of 500 μl. One volume was incubated for 4 h at RT and supernatant was discarded after centrifugation (2 minutes at 1400 rpm). Subsequently, the second volume was applied to the same matrix and incubated overnight on a roller device at 4° C. […] To collect the eluates, the matrices were centrifuged and the two eluates were pooled for each sample.
Protein digests were desalted as described (Rappsilber et al., 2003), vacuum dried and dissolved in 2.5% formic acid.
For analysis of peptide mixtures, an Agilent 1100 HPLC system (Agilent Technologies) connected to a Thermo Finnigan LTQ-MS (Thermo Electron, Bremen, Germany) was used. Protein digests were injected on a trap column (Reprosil C18 RP (Dr Maisch, Germany), 20 mm×100 μm I.D.) at 5 μl/minute. Subsequently, the peptides were transferred with a split-reduced flow rate of 100 nL/minute solvent A (0.1 M acetic acid) on the analytical column (Reprosil C18 RP, 20 cm×50 μm I.D.). […] The column effluent was directly introduced into the ESI source of the mass spectrometer via a butt-connected nano-ESI emitter (New Objectives, Woburn, Mass.). The mass spectrometer was operated in the positive ion mode and parent ions were selected for fragmentation in data-dependent mode.
After mass spectrometric measurements, peak lists were generated using BioWorks software (Thermo Electron, Bremen, Germany). Protein identification was performed using Mascot software (www.matrixscience.com) by searching the IPIhuman database (version 3.24, downloaded from ftp://ftp.ebi.ac.uk/pub/databases/IPI/current) using the following settings: fully tryptic peptides, peptide tolerance 0.8 Da, MS/MS tolerance 0.9 Da, 1 missed cleavage allowed, carbamidomethyl (Cys) and oxidation (Met) as fixed and variable modification, respectively. The Scaffold software package (www.proteomesoftware.com) was used to parse the data and to filter peptides at a confidence level of 95%, allowing only protein identification with at least 2 peptides identified.

Test [1] deals with T2, human mitochondrial HSP60 (Homo sapiens, UniProt P10809).
T2 construct: Dr. W. van Eden, Utrecht University; host or cells: E. coli
In words: ELISA: binding of HSP60 to immobilized (misfolded) protein ligands. On the procedure:
Recombinant human HSP60 with N-terminal His-tag was a kind gift of Dr. R. van der Zee and Prof. Dr. W. van Eden (Institute of Infectious Diseases and Immunology, Faculty of Veterinary Medicine, Utrecht University, Utrecht, The Netherlands), and was supplied in lyophilized form. The HSP60 was produced in E. coli and purified using Nickel-Sepharose. The HSP60 was lyophilized from 20-40 mM ammonium-bicarbonate solution, after purification, and stored at −20° C. The construct lacks the mitochondrial signal sequence. […] Before use, the lyophilized protein is dissolved at room temperature at 1 mg/ml in 20-40 mM NH4HCO3, resulting in a pH of 7.0. Aliquots are stored at −20° C. or −80° C. The mitochondrial HSP60 is a functional dimer of heptamers (MW(HSP60 monomer)=˜58 kDa), and is involved in multimer protein assembling and aids in transport of unfolded proteins across membranes. For the binding studies, at two occasions separate HSP60 solutions were prepared originating from the same batch of purified protein, lyophilized in separate Eppendorf cups.
Binding of chaperones to immobilized (misfolded) protein ligands was determined using an enzyme linked immuno sorbent assay (ELISA) approach. […] After 5 washes with wash buffer followed by two washes with PBS, binding of antibodies was assessed. […] Plates were read at 450 nm. […]
On the technique in general: In an ELISA, binding on a coated surface is turned into a signal by an enzyme label.

The target of another test is T3, human BiP (Homo sapiens, UniProt P11021).
T3 construct: The human BiP gene except the signal peptide encoding region was obtained from Geneart (Germany); linker […]; made in house; host or cells: HEK 293E cells, transient transfection, PABC674 vector; secreted into the medium
In words: ELISA: binding of BiP-FLAG-His to immobilized (misfolded) protein ligands. Particulars: ligands coated at 5 μg/ml; 6BB peptides and oxLDL 50 μg/ml. On the procedure: Enzyme Linked Immunosorbent Assay for Testing of Chaperone Binding to Misfolded Proteins
Binding of chaperones to immobilized (misfolded) protein ligands was determined using an enzyme linked immuno sorbent assay (ELISA) approach. For this purpose 50 μl/well of potential ligands at indicated concentrations or coat buffer only for control and background measurement purposes, were coated overnight at 4° C. or coated for 1 h at room temperature, with motion, in 50 mM NaHCO3 pH 9.6 (coat buffer). In general, ligands were coated at 5 μg/ml, unless stated otherwise. For example, BiP binding peptides 6BB# and oxLDL were coated at 50 μg/ml. Native haemoglobin (Sigma-Aldrich, H7379), albumin, IgIV Gammagard and ovalbumin controls were prepared from lyophilized stocks. The controls were prepared by dissolving lyophilized proteins at 1 mg/ml in PBS upon resuspending by pipetting, followed by a 30 minutes period at the roller device, at room temperature. The protein solutions were centrifuged for 10 minutes at 16,000*g and diluted in coat buffer. […] After 5 washes with wash buffer followed by two washes with PBS, binding of antibodies was assessed. […] Plates were read at 450 nm. Triplicates were averaged and standard deviations calculated. […] Subsequently, sub-optimal concentrations of chaperones for binding to misfolded protein ligands are determined, and these concentrations are used for inhibition studies. […]

T2 sequence (P10809 27-573): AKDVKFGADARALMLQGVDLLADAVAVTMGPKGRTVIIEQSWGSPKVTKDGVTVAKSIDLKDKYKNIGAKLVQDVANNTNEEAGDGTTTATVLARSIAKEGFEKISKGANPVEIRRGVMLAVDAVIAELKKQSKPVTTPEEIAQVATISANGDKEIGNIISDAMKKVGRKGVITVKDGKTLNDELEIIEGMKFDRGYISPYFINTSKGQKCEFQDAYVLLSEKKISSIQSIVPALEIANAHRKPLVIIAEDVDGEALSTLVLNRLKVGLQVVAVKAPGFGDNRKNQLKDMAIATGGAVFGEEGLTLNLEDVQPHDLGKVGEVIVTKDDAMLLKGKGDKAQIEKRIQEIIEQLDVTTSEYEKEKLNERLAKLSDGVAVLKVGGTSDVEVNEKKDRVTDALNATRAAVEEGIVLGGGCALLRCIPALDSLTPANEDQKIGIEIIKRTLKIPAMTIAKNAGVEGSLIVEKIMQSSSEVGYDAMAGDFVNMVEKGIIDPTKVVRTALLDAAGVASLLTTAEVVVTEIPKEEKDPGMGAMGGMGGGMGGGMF
T1 sequence (P11021 19-654): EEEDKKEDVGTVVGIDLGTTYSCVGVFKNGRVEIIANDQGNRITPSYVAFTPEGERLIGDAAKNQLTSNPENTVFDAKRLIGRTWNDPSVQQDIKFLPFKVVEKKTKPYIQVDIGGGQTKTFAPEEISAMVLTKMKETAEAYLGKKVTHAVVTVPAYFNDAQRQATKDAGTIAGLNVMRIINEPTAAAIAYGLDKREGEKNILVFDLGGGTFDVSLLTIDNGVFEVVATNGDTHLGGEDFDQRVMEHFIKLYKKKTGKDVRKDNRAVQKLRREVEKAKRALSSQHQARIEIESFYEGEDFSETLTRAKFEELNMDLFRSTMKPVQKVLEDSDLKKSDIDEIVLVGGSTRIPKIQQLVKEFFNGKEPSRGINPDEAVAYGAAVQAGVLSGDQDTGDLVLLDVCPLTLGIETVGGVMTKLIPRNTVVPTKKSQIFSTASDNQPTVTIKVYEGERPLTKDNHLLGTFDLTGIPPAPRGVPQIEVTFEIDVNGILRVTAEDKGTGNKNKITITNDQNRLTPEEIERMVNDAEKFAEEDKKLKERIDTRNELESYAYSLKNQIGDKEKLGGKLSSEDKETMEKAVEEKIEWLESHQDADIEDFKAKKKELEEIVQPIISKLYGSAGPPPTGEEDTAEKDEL
T3 sequence (P11021 19-654): as above

B1: Immunoglobulin heavy constant mu (protein)
chain: GSASAPTLFPLVSCENSPSDTSSVAVGCLAQDFLPDSITFSWKYKNNSDISSTRGFPSVLRGGKYAATSQVLLPSKDVMQGTDEHVVCKVQHPNGNKEKNVPLPVIAELPPKVSVFVPPRDGFFGNPRKSKLICQATGFSPRQIQVSWLREGKQVGSGVTTDQVQAEAKESGPTTYKVTSTLTIKESDWLGQSMFTCRVDHRGLTFQQNASSMCVPDQDTAIRVFAIPPSFASIFLTKSTKLTCLVTDLTTYDSVTISWTRQNGEAVKTHTNISESHPNATFSAVGEASICEDDWNSGERFTCTVTHTDLPSPLKQTISRPKGVALHRPDVYLLPPAREQLNLRESATITCLVTGFSPADVFVQWMQRGQPLSPEKYVTSAPMPEPQAPGRYFAHSILTVSEEEWNTGETYTCVVAHEALPNRVTERTVDKSTGKPTLYNVSLVMSDTAGTCY
With B1, in the test with BiP-Sepharose, the “# of peptides in sample A#” value stood at 1.

B2: ovalbumin: native chicken ovalbumin control (protein)
chain: GSIGAASMEFCFDVFKELKVHHANENIFYCPIAIMSALAMVYLGAKDSTRTQINKVVRFDKLPGFGDSIEAQCGTSVNVHSSLRDILNQITKPNDVYSFSLASRLYAEERYPILPEYLQCVKELYRGGLEPINFQTAADQARELINSWVESQTNGIIRNVLQPSSVDSQTAMVLVNAIVFKGLWEKAFKDEDTQAMPFRVTEQESKPVQMMYQIGLFRVASMASEKMKILELPFASGTMSMLVLLPDEVSGLEQLESIINFEKLTEWTSSNVMEERKIKVYLPRMKMEEKYNLTSVLMAMGITDVFSSSANLSGISSAESLKISQAVHAAHAEINEAGREVVGSAEAGVDAASVSEEFRADHPFLFCIKHIATNAVLFFGRCVSP
As for B2, in test [1], the “Binding of concentration series of HSP60 to coated ligand” value was “did not bind”. Besides, the “Binding of concentration series of BiP to coated ligand” value with human BiP is “did not bind”.

For the origin of these results see patent US20100015126A1, “Methods of Binding of Cross-Beta Structures By Chaperones” (priority 2006, published 2010).
